Measured values published in patent US20230348575A1.
Like-named read-outs stand apart in the source and are kept apart here.

What was measured:
[1] = biological target: RSV F peptides F85-93 and F249-258 presented to CD8+ T cells of BALB/c mice (RSV, A2 strain)
[2] = biological target: RSV F peptide 51-66 presented to CD4+ T cells of BALB/c mice (RSV, A2 strain)
[3] = biological target: RSV F peptides F85-93 and F249-258 presented to CD8+ T cells of BALB/c mice (RSV, A2 strain); remark: listed apart in the source
[4] = biological target: RSV F peptide 51-66 presented to CD4+ T cells of BALB/c mice (RSV, A2 strain); remark: listed apart in the source

Splenic T cells of BALB/c mice vaccinated with A317 RNA (10 ug) with electroporation, day 49 (Example 7B, 10-1001) (cells without a defined receptor)
CD8+ CD4- splenic T cells: % cytokine-positive (IFNg+), intracellular cytokine staining [1]: 0.85%
CD4+ CD8- splenic T cells: % cytokine-positive (TNFa+), intracellular cytokine staining [2]: 0.05%

Splenic T cells of BALB/c mice vaccinated with A317 RNA in liposomes RV01(01), day 49 (Example 7C, 10-1018) (cells without a defined receptor)
CD8+ CD4- splenic T cells: % cytokine-positive (IFNg+), intracellular cytokine staining, 10 ug [3]: 3.32%
CD4+ CD8- splenic T cells: % cytokine-positive (TNFa+), intracellular cytokine staining, 1 ug [4]: 0.09%

Splenic T cells of unvaccinated BALB/c mice, day 49 (Example 7B, 10-1001) (cells without a defined receptor)
CD8+ CD4- splenic T cells: % cytokine-positive (IFNg+), intracellular cytokine staining [1]: 0.01%
CD4+ CD8- splenic T cells: % cytokine-positive (TNFa+), intracellular cytokine staining [2]: 0%

Splenic T cells of BALB/c mice vaccinated with naked A317 RNA, day 49 (Example 7C, 10-1018) (cells without a defined receptor)
CD8+ CD4- splenic T cells: % cytokine-positive (IFNg+), intracellular cytokine staining, 1 ug [3]: 1.68%
CD4+ CD8- splenic T cells: % cytokine-positive (TNFa+), intracellular cytokine staining, 1 ug [4]: 0.03%

Splenic T cells of BALB/c mice vaccinated with naked A317 RNA (1 ug), day 49 (Example 7B, 10-1001) (cells without a defined receptor)
CD8+ CD4- splenic T cells: % cytokine-positive (IFNg+), intracellular cytokine staining [1]: 0.74%
CD4+ CD8- splenic T cells: % cytokine-positive (TNFa+), intracellular cytokine staining [2]: 0.03%

Splenic T cells of BALB/c mice vaccinated with A317 RNA formulated with CNE17, day 49 (Example 7B, 10-1001) (cells without a defined receptor)
CD8+ CD4- splenic T cells: % cytokine-positive (IFNg+), intracellular cytokine staining, 1 ug [1]: 1.25%
CD4+ CD8- splenic T cells: % cytokine-positive (TNFa+), intracellular cytokine staining, 1 ug [2]: 0.05%

Splenic T cells of unvaccinated BALB/c mice, day 49 (Example 7C, 10-1018) (cells without a defined receptor)
CD8+ CD4- splenic T cells: % cytokine-positive (IFNg+), intracellular cytokine staining [3]: 0.01%
CD4+ CD8- splenic T cells: % cytokine-positive (TNFa+), intracellular cytokine staining [4]: 0.01%

Splenic T cells of BALB/c mice vaccinated with VRPs expressing RSV-F (1E6 IU), day 49 (Example 7B, 10-1001) (cells without a defined receptor)
CD8+ CD4- splenic T cells: % cytokine-positive (IFNg+), intracellular cytokine staining [1]: 3.48%
CD4+ CD8- splenic T cells: % cytokine-positive (TNFa+), intracellular cytokine staining [2]: 0.1%

Splenic T cells of BALB/c mice vaccinated with VRPs expressing RSV-F (1E6 IU), day 49 (Example 7C, 10-1018) (cells without a defined receptor)
CD8+ CD4- splenic T cells: % cytokine-positive (IFNg+), intracellular cytokine staining [3]: 2.45%
CD4+ CD8- splenic T cells: % cytokine-positive (TNFa+), intracellular cytokine staining [4]: 0.07%

Splenic T cells of BALB/c mice vaccinated with A317 RNA in liposomes RV01(01), day 49 (Example 7B, 10-1001) (cells without a defined receptor)
CD8+ CD4- splenic T cells: % cytokine-positive (IFNg+), intracellular cytokine staining, 1 ug [1]: 3.69%
CD4+ CD8- splenic T cells: % cytokine-positive (TNFa+), intracellular cytokine staining, 1 ug [2]: 0.09%
